Assay [1] addresses partially purified 17-1A antigen (isolated from SW116 cells) (human) (UniProt P16422). Description: competition with 125I murine 17-1A on plates coated with partially purified 17-1A antigen; 50% binding value.
For assay [2] the target is unchanged. The assay can be described thus: cold murine 17-1A competing with 125I murine 17-1A on plates coated with partially purified 17-1A antigen; 50% binding value.

In patent publication EP0256654B1 one finds IC50 data, which are given here for 2 substances.

The term IC50 denotes the concentration that gives 50% inhibition. Low readings indicate higher potency, high ones lower potency. With “G1K 17-1A Chimeric IgG (from UniProt P01857 1-330) (antibody)”, in assay [1], the concentration for half-maximal inhibition (IC50) came to 0.3 µg/mL.
Take murine monoclonal antibody 17-1A: the concentration for half-maximal inhibition (IC50) in assay [2] came to 0.16 µg/mL.
